Measured values as given in IntAct's records for PubMed 21946559.

B1: Leucine-rich repeat-containing protein 4C (Homo sapiens), Q9HCJ2 (parent)
chain: MLNKMTLHPQQIMIGPRFNRALFDPLLVVLLALQLLVVAGLVRAQTCPSVCSCSNQFSKVICVRKNLREVPDGISTNTRLLNLHENQIQIIKVNSFKHLRHLEILQLSRNHIRTIEIGAFNGLANLNTLELFDNRLTTIPNGAFVYLSKLKELWLRNNPIESIPSYAFNRIPSLRRLDLGELKRLSYISEGAFEGLSNLRYLNLAMCNLREIPNLTPLIKLDELDLSGNHLSAIRPGSFQGLMHLQKLWMIQSQIQVIERNAFDNLQSLVEINLAHNNLTLLPHDLFTPLHHLERIHLHHNPWNCNCDILWLSWWIKDMAPSNTACCARCNTPPNLKGRYIGELDQNYFTCYAPVIVEPPADLNVTEGMAAELKCRASTSLTSVSWITPNGTVMTHGAYKVRIAVLSDGTLNFTNVTVQDTGMYTCMVSNSVGNTTASATLNVTAATTTPFSYFSTVTVETMEPSQDEARTTDNNVGPTPVVDWETTNVTTSLTPQSTRSTEKTFTIPVTDINSGIPGIDEVMKTTKIIIGCFVAITLMAAVMLVIFYKMRKQHHRQNHHAPTRTVEIINVDDEITGDTPMESHLPMPAIEHEHLNHYNSYKSPFNHTTTVNTINSIHSSVHEPLLIRMNSKDNVQETQI
partner: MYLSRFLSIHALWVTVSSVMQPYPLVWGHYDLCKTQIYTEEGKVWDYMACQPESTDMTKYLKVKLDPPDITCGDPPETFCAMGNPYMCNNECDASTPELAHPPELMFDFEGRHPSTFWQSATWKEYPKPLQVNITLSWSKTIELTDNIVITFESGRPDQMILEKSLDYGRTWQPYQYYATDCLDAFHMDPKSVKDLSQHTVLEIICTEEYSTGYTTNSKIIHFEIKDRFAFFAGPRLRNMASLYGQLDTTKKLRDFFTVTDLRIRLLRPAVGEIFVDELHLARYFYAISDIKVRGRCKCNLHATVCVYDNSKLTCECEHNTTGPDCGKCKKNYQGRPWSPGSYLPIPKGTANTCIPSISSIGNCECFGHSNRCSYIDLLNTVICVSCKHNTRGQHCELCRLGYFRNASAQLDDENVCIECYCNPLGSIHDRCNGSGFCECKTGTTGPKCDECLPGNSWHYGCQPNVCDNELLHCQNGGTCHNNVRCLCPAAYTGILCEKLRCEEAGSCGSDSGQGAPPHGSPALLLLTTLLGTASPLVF
B2: Leucine-rich repeat-containing protein 4 (Homo sapiens), Q9HBW1 (parent)
chain: MKLLWQVTVHHHTWNAILLPFVYLTAQVWILCAAIAAAASAGPQNCPSVCSCSNQFSKVVCTRRGLSEVPQGIPSNTRYLNLMENNIQMIQADTFRHLHHLEVLQLGRNSIRQIEVGAFNGLASLNTLELFDNWLTVIPSGAFEYLSKLRELWLRNNPIESIPSYAFNRVPSLMRLDLGELKKLEYISEGAFEGLFNLKYLNLGMCNIKDMPNLTPLVGLEELEMSGNHFPEIRPGSFHGLSSLKKLWVMNSQVSLIERNAFDGLASLVELNLAHNNLSSLPHDLFTPLRYLVELHLHHNPWNCDCDILWLAWWLREYIPTNSTCCGRCHAPMHMRGRYLVEVDQASFQCSAPFIMDAPRDLNISEGRMAELKCRTPPMSSVKWLLPNGTVLSHASRHPRISVLNDGTLNFSHVLLSDTGVYTCMVTNVAGNSNASAYLNVSTAELNTSNYSFFTTVTVETTEISPEDTTRKYKPVPTTSTGYQPAYTTSTTVLIQTTRVPKQVAVPATDTTDKMQTSLDEVMKTTKIIIGCFVAVTLLAAAMLIVFYKLRKRHQQRSTVTAARTVEIIQVDEDIPAATSAAATAAPSGVSGEGAVVLPTIHDHINYNTYKPAHGAHWTENSLGNSLHPTVTTISEPYIIQTHTKDKVQETQI
partner: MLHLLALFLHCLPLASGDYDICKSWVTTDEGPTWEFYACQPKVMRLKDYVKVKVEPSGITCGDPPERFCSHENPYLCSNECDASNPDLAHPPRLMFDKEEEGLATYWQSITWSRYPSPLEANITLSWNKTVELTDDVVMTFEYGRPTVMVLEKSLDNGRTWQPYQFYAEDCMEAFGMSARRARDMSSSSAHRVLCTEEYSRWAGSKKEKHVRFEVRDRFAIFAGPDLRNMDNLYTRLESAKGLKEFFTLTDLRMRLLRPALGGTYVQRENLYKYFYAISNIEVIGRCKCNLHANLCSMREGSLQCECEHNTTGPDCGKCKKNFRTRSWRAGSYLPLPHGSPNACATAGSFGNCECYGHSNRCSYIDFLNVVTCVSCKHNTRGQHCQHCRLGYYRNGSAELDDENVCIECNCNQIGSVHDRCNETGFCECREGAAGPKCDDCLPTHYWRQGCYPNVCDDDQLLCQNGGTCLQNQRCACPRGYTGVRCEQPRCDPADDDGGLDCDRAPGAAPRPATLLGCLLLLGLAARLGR
B3: Netrin-G2 (Homo sapiens), Q96CW9 (parent)
chain: B2 partner
partner: B2 chain
B4: Netrin-G1 (Homo sapiens), Q9Y2I2 (parent)
chain: B1 partner
partner: B1 chain
B5: Leucine-rich repeat-containing protein 4 (Homo sapiens), Q9HBW1 (parent)
chain: B2 chain
partner: B1 partner
B6: Netrin-G1 (Homo sapiens), Q9Y2I2 (parent)
chain: B1 partner
partner: B2 chain
B7: Netrin-G2 (Homo sapiens), Q96CW9 (parent)
chain: B2 partner
partner: B1 chain
B8: Leucine-rich repeat-containing protein 4C (Homo sapiens), Q9HCJ2 (parent)
chain: B1 chain
partner: B2 partner

Variants of: B1
Conditions: with ntng1_human NTNG1, Q9Y2I2

| effect of a mutation on the interaction | Variant |
| --- | --- |
| disrupting interaction | A205T |

Variants of: B2
Conditions: with ntng2_human NTNG2, Q96CW9

| effect of a mutation on the interaction | Variant |
| --- | --- |
| disrupting interaction | G204T |

Variants of: B3
Conditions: with lrrc4_human LRRC4, Q9HBW1

| effect of a mutation on the interaction | Variant |
| --- | --- |
| disrupting interaction | P74A |
| disrupting interaction | Y75T |

Variants of: B4
Conditions: with lrc4c_human LRRC4C, Q9HCJ2

| effect of a mutation on the interaction | Variant |
| --- | --- |
| disrupting interaction | P85A |
| disrupting interaction | Y86T |

Variants of: B5
Conditions: with ntng1_human NTNG1, Q9Y2I2

| effect of a mutation on the interaction | Variant |
| --- | --- |
| disrupting interaction | G204T |

Variants of: B6
Conditions: with lrrc4_human LRRC4, Q9HBW1

| effect of a mutation on the interaction | Variant |
| --- | --- |
| disrupting interaction | P85A |
| disrupting interaction | Y86T |

Variants of: B7
Conditions: with lrc4c_human LRRC4C, Q9HCJ2

| effect of a mutation on the interaction | Variant |
| --- | --- |
| disrupting interaction | Y75T |
| disrupting interaction | P74A |

Variants of: B8
Conditions: with ntng2_human NTNG2, Q96CW9

| effect of a mutation on the interaction | Variant |
| --- | --- |
| disrupting interaction | A205T |
